Data: patent US6762284 (ONYX PHARMACEUTICALS, dated 2004)
Like-named read-outs stand apart in the source and are kept apart here.

What was measured:
Assay in all cases: yeast two-hybrid
[1] = target: T1, p85 C-terminal SH2 domain (AA 620-727) (human, UniProt P04386 1-147; P27986 620-724)
[2] = target: T2, p85 SH3 domain (AA 6-117) (human, UniProt P04386 1-147; P27986 6-117)
[3] = target: T3, p85 Bcr homology domain (AA 118-340) (human, UniProt P04386 1-147; P27986 118-340)
[4] = target: T4, p85 N-terminal SH2 and inter SH2 domain (AA 263-620) (human, UniProt P04386 1-147; P27986 263-620)
T4 construct: Two-hybrid bait fusion

[5] = target: p85 SH2 domains and inter SH2 domain (AA 263-727) (human, UniProt P04386 1-147; P27986 263-724)
[6] = target: T5, p85 full length (AA 6-727) (human, UniProt P04386 1-147; P27986 6-724)
T5 construct: also called GAL4-p85

[7] = target: T1, p85 C-terminal SH2 domain (AA 620-727); remark: listed apart in the source
[8] = target: T2, p85 SH3 domain (AA 6-117); remark: listed apart in the source
[9] = target: T3, p85 Bcr homology domain (AA 118-340); remark: listed apart in the source

Measured: binding result

B1: PIKAP AA 361-516 (other, not shown: large carriers)
chain: VGEPGYCLVRLGMTTGRLQSGVNTLQGFKEDKRNKVTPVLYLNYGPYSSYAPHYDSTFANISKDDSDLIYSTYGEDSDLPSDFSIHEFLATCQDYPYVMADSLLDVLTKGGHSRTLQEMEMSLPEDEGHTRTLDTGKEMEQITEVEPPGRLDSSTQ
no binding: [1] | [2] | [3] | [4] | [5] | [6]

B2: PIKAP AA 277-360 (other, not shown: large carriers)
chain: EDSGDAEAHAFKSPSKENKKKDKDMLEDKFKSNNLEREQEQLDRIVKESGGKLTRRLVNSQCEFERRKPDGTTTLGLLHPVDPI
no binding: [1] | [2] | [3] | [4] | [5] | [6]

B3: PIKAP AA 277-589 (other, not shown: large carriers)
chain: EDSGDAEAHAFKSPSKENKKKDKDMLEDKFKSNNLEREQEQLDRIVKESGGKLTRRLVNSQCEFERRKPDGTTTLGLLHPVDPIVGEPGYCLVRLGMTTGRLQSGVNTLQGFKEDKRNKVTPVLYLNYGPYSSYAPHYDSTFANISKDDSDLIYSTYGEDSDLPSDFSIHEFLATCQDYPYVMADSLLDVLTKGGHSRTLQEMEMSLPEDEGHTRTLDTGKEMEQITEVEPPGRLDSSTQDRLIALKAVTNFGVPVEVFDSEEAEIFQKKLDETTRLLRELQEAQNERLSTRPPGNMICLLGPSSEKCILLNK
notes: Two-hybrid prey fusion expressed in yeast YGH1; also called original isolate from two hybrid screening; PI3K Associated Protein AA 277-589
no binding: [7] | [8] | [9]

B4: PIKAP AA 517-589 (other, not shown: large carriers)
chain: DRLIALKAVTNFGVPVEVFDSEEAEIFQKKLDETTRLLRELQEAQNERLSTRPPGNMICLLGPSSEKCILLNK
notes: The text speaks of the last 74 amino acids, while 517-589 counts 73 residues; also called last 74 amino acids of the c-terminal end of PIKAP
no binding: [1] | [2] | [3]
